Measurements as given in publication PMC10075959.

Biological target: FL-N nucleocapsid protein (SARS-CoV-2, UniProt P0DTC9 1-419)
Experiment: sedimentation velocity AUC
Conditions: protein: commercial; chain copies: 2; single strand

## TTTTTTTTTT (ssDNA) [T10]
  binding result: binds
